From patent publication US10487114

Test system: T1, pT231-Pro tau peptide KVAVVR-(pT231)-(Pro)-PKSPS
T1 sequence: KVAVVRTPPKSPS

PP2A was tested, and the “dephosphorylation of pT231-tau peptide, read with the conformation-specific antibodies” value was “Trans, but not cis, pT231-tau peptide was readily dephosphorylated by PP2A in a time-dependent manner”.
